Experimental data reported in the MegaScale stability set (Tsuboyama et al. 2023).

B1: EHEE_rd2_0601 (parent)
chain: TYTYKLTDEEASRRAEDEWRNRGYDVRVRNNNGTWEVEVR

Variants of: B1
Experiment: folding stability dG (cDNA display proteolysis); higher = more stable
Settings: PBS, room temperature

Folding stability dG [kcal/mol]: each site, then its substitutions
L6: G 0.912, T 1.8, E 0.639, R -0.655, I 1.15, N 0.622, V 2.08, F 3.77, S 1.23, P -0.21, K -0.09, H 1.48, A 1.4, W 1.14, Q 0.88, Y 3.41, M 1.97, D 0.391
R20: Q 0.446, S 0.589, I 0.853, A 0.541, H 0.444, M 0.619, K 1.32, F 0.22, N 0.373, G 0.028, E -0.108, T 0.945, L 0.904
E10: Q 1.41, Y 1.29, K 1.19, S 1.22, A 1.75, W 1.28, P 1.02, I 1.3, C 1.88, G 1.1, F 1.2, T 1.23, L 1.34, N 1.12, D 1.38, R 1.06, M 1.41, H 1.09, V 1.27
T1: Y 1.81, W 2.65
T3: F 1.37, Y 1.36, H 0.873, C 2.36, G 0.036, E 0.117, S 0.898, I 1.92, D 0.044, N 0.532, R 1.12, Q 0.604, V 1.82, K 1.13, M 1.18, L 1.46, P -0.035, W 1.24, A 0.556
T7: M 1.78, G 1.69, F 1.91, H 1.69, Q 1.86, E 1.85, R 1.61, W 1.64, C 2, S 1.63, N 1.62, V 1.63, Y 2.02, P 2.05, K 1.79, D 1.81, I 1.62, A 1.94, L 1.82
S12: A 3.22, E -0.128, L 1.39, R 0.481, V 2.17, W 0.977, F 1.08, N -0.531, P -0.764, H -0.243, M 1.95, T 1.51, Q 0.072, Y 0.95, C 2.33, I 0.918, D -0.63, K 0.553, G 1.14
Y4: A -0.411, N -0.767, Q 0.276, I 1.58, C 1.16, P -0.228, H 0.191, E 0.419, K -0.308, S -0.488, L 1.36, F 1.94, W 1.12, M 1.14, G -0.985, T -0.316, D -0.109, V 0.852
E18: C 2.41, D 1.21, Y 3.02, Q 1.36, K 1.43, L 2.04, S 1.25, I 1.74, R 1.31, V 1.56, T 1.35, N 1.03, H 1.83, F 2.71, M 2.03, W 2.44, A 1.45, G 0.757
W19: A 0.133, Y 0.78, I -0.516, L 0.884, E -0.502, N -0.826, H -0.397, F 1.04, M 0.446
D8: E 0.662, R -0.434, C 1.07, H 0.365, V -0.022, W 0.339, K -0.424, M 0.146, Q 0.142, T 1.74, S 1.9, A 0.271, N 1.47
